Assay [1] deals with recombinant HLA-A2.1 protein and b2-microglobulin (human). In words: cell-free competition assay on recombinant HLA-A2.1, against HA-1^H peptide [..] as reference. The settings on record: remark: other sources report otherwise.
The target of assay [2] is HLA-A3 on HLA typed EBV-LCLs (human). As to the kind of experiment: cell-based competition on acid-treated EBV-LCLs against 150 nM fluorescent reference peptide, flow cytometry.
Assay [3] concerns the target HLA-B60 on HLA typed EBV-LCLs (human). In words: cell-based competition assay, flow cytometry.
The target is the same in assay [4]. As to the kind of experiment: cell-based competition on acid-treated EBV-LCLs against 150 nM fluorescent reference peptide, flow cytometry.
The target is the same in assay [5]. The description is as above. The source holds these as a separate data set.
Assay [6] addresses HLA-A2 on HLA typed EBV-LCLs (human). The description is as above. The settings on record: remark: other sources report otherwise.
In assay [7] the target is HLA-B60 on HLA typed EBV-LCLs (human). As to the kind of experiment: cell-based competition assay, flow cytometry. The source holds these as a separate data set.

B1: HA-1^R peptide … (peptide)
peptide: VLRDDLLEA
On to B1, for which the fold lower binding affinity than the HA-1^H peptide in assay [1] worked out at 10 fold.

B2: decameric HA-1^H peptide … (peptide)
peptide: VLHDDLLEAR
modifications: not checked
In the case of B2, the IC50 in assay [2] turned out to be 15.6 µM.

B3: nonameric HA-1^H peptide … (peptide)
peptide: KECVLHDDL
modifications: not checked
Consider B3, for which the values for the IC50 in assay [3] and in assay [4] were 1.6 to 5.3 µM and 5.3 µM, respectively.

B4: decameric HA-1^H peptide … (peptide)
peptide: KECVLHDDLL
With B4, the IC50 in assay [5] amounted to 1 µM.

B5: HLA-B60 binder-positive control peptide … (peptide)
peptide: KESTLHLVL
As for B5, the IC50 in assay [5] stood at 1.1 µM.

B6: HA-1^H peptide … (peptide)
peptide: VLHDDLLEA
In the case of B6, the IC50 in assay [6] was found to be 6.4 µM.

B7: decameric HA-1^R peptide … (peptide)
peptide: KECVLRDDLL
B7: the IC50 in assay [7] was 1.6 to 5.3 µM; in assay [5], 1.6 µM.

The values are drawn from US20080206268A1.
